Measured values published in the Immune Epitope Database (IEDB).
Blank lines part the entries; values can stand above or below the sequence they belong to.

Tests used:
[1] = molecular target: HLA-A*02:01; assay: IEDB peptide-MHC binding, purified MHC/competitive/fluorescence; ≥ and ≤ were set here for values at or beyond the usual limits of such assays
[2] = molecular target: HLA-A*69:01; assay: IEDB peptide-MHC binding, purified MHC/direct/fluorescence; filed as Kd, often an IC50 or EC50 that approximates it; ≥ and ≤ were set here for values at or beyond the usual limits of such assays
[3] = molecular target: HLA-A*02:01; assay: as above
[4] = molecular target: HLA-A*01:01; assay: IEDB peptide-MHC binding, purified MHC/competitive/radioactivity; filed as Kd, often an IC50 or EC50 that approximates it; ≥ and ≤ were set here for values at or beyond the usual limits of such assays
[5] = molecular target: HLA-A*24:02; assay: as above; details: source organism: Dengue virus 2 Jamaica/1409/1983
[6] = molecular target: HLA-B*44:02; assay: as above
[7] = molecular target: HLA-B*44:03; assay: as above
[8] = molecular target: HLA-A*26:01; assay: as above
[9] = molecular target: HLA-A*30:01; assay: as above
[10] = molecular target: HLA-B*15:01; assay: IEDB peptide-MHC binding, purified MHC/direct/fluorescence; filed as Kd, often an IC50 or EC50 that approximates it; ≥ and ≤ were set here for values at or beyond the usual limits of such assays
[11] = molecular target: HLA-A*03:01; assay: as above
[12] = molecular target: HLA-B*07:02; assay: as above
[13] = molecular target: HLA-A*03:01; assay: IEDB peptide-MHC binding, purified MHC/competitive/radioactivity; filed as Kd, often an IC50 or EC50 that approximates it; ≥ and ≤ were set here for values at or beyond the usual limits of such assays; details: source organism: Dengue virus 4 Philippines/H241/1956
[14] = molecular target: HLA-A*11:01; assay: as above; details: source organism: Dengue virus 4 Philippines/H241/1956
[15] = molecular target: HLA-A*02:01; assay: IEDB peptide-MHC binding, purified MHC/competitive/fluorescence; filed as Kd, often an IC50 or EC50 that approximates it; ≥ and ≤ were set here for values at or beyond the usual limits of such assays; details: source organism: Bacillus anthracis str. A0488
[16] = molecular target: HLA-A*11:01; assay: IEDB peptide-MHC binding, purified MHC/direct/fluorescence; filed as Kd, often an IC50 or EC50 that approximates it; ≥ and ≤ were set here for values at or beyond the usual limits of such assays; details: source organism: Homo sapiens
[17] = molecular target: HLA-A*02:02; assay: IEDB peptide-MHC binding, purified MHC/competitive/radioactivity; filed as Kd, often an IC50 or EC50 that approximates it; ≥ and ≤ were set here for values at or beyond the usual limits of such assays; details: source organism: Vaccinia virus WR
[18] = molecular target: HLA-A*02:03; assay: as above; details: source organism: Vaccinia virus WR
[19] = molecular target: HLA-A*02:06; assay: as above; details: source organism: Vaccinia virus WR
[20] = source organism: Giardia lamblia ATCC 50803
[21] = source organism: Dengue virus 3 Martinique/1243/1999
[22] = source organism: Sudan ebolavirus
[23] = source organism: Zaire ebolavirus
[24] = source organism: Dengue virus 1 Brazil/97-11/1997
[25] = source organism: Dengue virus 1 Singapore/S275/1990
[26] = source organism: Dengue virus 2 Thailand/NGS-C/1944
[27] = source organism: Vaccinia virus WR
[28] = source organism: Dengue virus 2 Jamaica/1409/1983
[29] = source organism: Mycobacterium tuberculosis str. Haarlem
[30] = source organism: Dengue virus 4 Philippines/H241/1956
[31] = source organism: Mycobacterium avium 104
[32] = source organism: Salmonella enterica subsp. enterica serovar Typhimurium

Sequence: LLWFNYLFG
IC50 ([1]; source organism: Variola virus): ≥ 327 µM

Sequence: LMQDCAIKA
Kd [2, 20]: ≥ 20 µM
Kd [3, 20]: 0.0821 µM

Sequence: LRFANPLSN
IC50 ([1]; source organism: Vaccinia virus): ≥ 164 µM

Sequence: LTASLVMLL
Kd ([4]; source organism: Dengue virus 4 Dominica/814669/1981): 1.9 µM

Sequence: LTDGPERVIL
Kd [4, 21]: 11.8 µM

Sequence: LVPKNSPGM
IC50 [1, 22]: 17.7 µM

Sequence: LYAVATTFV
Kd [5]: 0.0664 µM

Sequence: MDYHKILTA
IC50 [1, 23]: ≥ 114 µM

Sequence: MENLLWKQI
Kd [6, 21]: 0.00679 µM
Kd [7, 21]: 0.0934 µM

Sequence: MTSRMLLNRF
Kd [8, 24]: 2.18 µM
Kd [4, 24]: 12.3 µM

Sequence: NEGIMAVGI
Kd [6, 25]: 0.048 µM
Kd [7, 25]: 0.16 µM

Sequence: NEMVLLQMEN
Kd [6, 26]: 0.512 µM
Kd [7, 26]: 1.44 µM

Sequence: NLEHGLFPQ
IC50 [1, 23]: ≥ 304 µM

Sequence: NVRYVFLYK
Kd [9, 27]: 0.00989 µM

Sequence: PECPSASRAW
Kd [6, 21]: 1.12 µM

Kd ([3]; source organism: Homo sapiens): 2.43 µM
Sequence: PMVHSTFLI

Sequence: QLAKAIITP
IC50 ([1]; source organism: Vaccinia virus Copenhagen): ≥ 96.3 µM

Sequence: QVNNLEEIC
IC50 [1, 23]: ≥ 112 µM

Sequence: RASGSYISG
Kd [9, 27]: 0.589 µM

Sequence: RDKRSVALA
Kd [9, 24]: 1.99 µM

Sequence: RKKARSTPFN
Kd [9, 28]: 3.82 µM

Sequence: RLSNGMPTV
Kd [9, 27]: 9.27 µM

Sequence: RMGAAVTPY
Kd [10, 29]: 0.0988 µM
Kd [11, 29]: 0.254 µM

Sequence: RMMASSMSQ
Kd ([11]; source organism: Bacillus cereus): ≥ 20 µM

Sequence: RNRDQSNAL
Kd ([12]; source organism: Mycobacterium tuberculosis): 0.112 µM

Sequence: RTEAKSALK
Kd [13]: 0.0876 µM
Kd [9, 30]: 0.476 µM
Kd [14]: 0.177 µM

Sequence: RTHFSQPSG
Kd [9, 27]: 0.0146 µM

Sequence: RVSVSAILL
Kd [9, 27]: 0.0147 µM

Sequence: SAKNSWLNL
Kd [9, 27]: 0.000574 µM

Sequence: SAVNMTSRM
Kd [8, 24]: 1.22 µM

Kd ([6]; source organism: Homo sapiens): 0.0054 µM
Sequence: SELFRSRLDSY

Sequence: SEMIIPKNF
Kd [6, 28]: 0.0107 µM
Kd [7, 28]: 0.0129 µM

Sequence: SLAALFYSL
Kd [15]: 0.0018 µM

Sequence: SLTKLFSYG
IC50 ([1]; source organism: Variola virus): 8.92 µM

Sequence: SMVNGVVKL
Kd [2, 25]: ≥ 20 µM

Sequence: SRNSTHEMYW
Kd [6, 28]: 6.36 µM
Kd [7, 28]: 1.37 µM

Sequence: SSLPPLESD
IC50 [1, 23]: ≥ 170 µM

Kd [16]: 12.4 µM
Sequence: STEIGLLVG

Sequence: STPQGLVKRF
Kd [8, 30]: 0.453 µM

Sequence: TTLATISTS
IC50 [1, 23]: 6.62 µM

Sequence: TVIALFLAH
Kd [8, 24]: 12.2 µM

Sequence: VEGLSGATW
Kd [6, 24]: 0.03 µM
Kd [7, 24]: 0.0891 µM

Sequence: VLFDLDEDD
IC50 [1, 23]: 3.74 µM

Sequence: VVRLLTKPWD
Kd [9, 28]: 3.78 µM

Sequence: VYLPGRGGV
Kd [2, 31]: ≥ 20 µM
Kd [3, 31]: ≥ 20 µM

Sequence: WLKGNISPV
Kd [2, 32]: 0.536 µM
Kd [12, 32]: 3.11 µM
Kd [10, 32]: 0.795 µM
Kd [3, 32]: 0.0205 µM

Sequence: WVIILFQKA
IC50 [1, 22]: ≥ 341 µM

Sequence: WYAQIQPHWI
Kd [5]: 0.0493 µM

Sequence: YLGHSAGFTA
Kd [17]: 0.0164 µM
Kd [18]: 0.0861 µM
Kd [19]: 0.144 µM

Sequence: YTEAAAATCA
Kd [17]: ≥ 36.5 µM
Kd [18]: 16.1 µM
Kd [19]: 7.15 µM

Sequence: YVEHDPRLVA
Kd [17]: 18.6 µM
Kd [18]: 16.2 µM
Kd [19]: 11.9 µM
